Test: label from the status in PepcDB records

Row | Sequence | protein production
1 | MSRGDKMLKFEIKARDGAGRIGKLEVNGKKIETPAIMPVVNPKQMVVEPKELEKMGFEIIITNSYIIYKDEELRRKALELGIHRMLDYNGIIEVDSGSFQLMKYGSIEVSNREIIEFQHRIGVDIGTFLDIPTPPDAPREQAVKELEITLSRAREAEEIKEIPMNATIQGSTYTDLRRYAARRLSSMNFEIHPIGGVVPLLESYRFRDVVDIVISSKMALRPDRPVHLFGAGHPIVFALAVAMGVDLFDSASYALYAKDDRYMTPEGTKRLDELDYFPCSCPVCSKYTPQELREMPKEERTRLLALHNLWVIKEEIKRVKQAIKEGELWRLVDERARSHPKLYSAYKRLLEHYTFLEEFEPITKKSALFKISNESLRWPVVRRAKERAKSINERFGELVEHPIFGRVSRYLSLTYPFAQSEAEDDFKIEKPTKEDAIKYVMAIAEYQFGEGASRAFDDAKVELSKTGMPRQVKVNGKRLATVRADDGLLTLGIEGAKRLHRVLPYPRMRVVVNKEAEPFARKGKDVFAKFVIFADPGIRPYDEVLVVNENDELLATGQALLSGREMIVFQYGRAVKVRKGVE | not failed
2 | MSRGHCILAHGFESGPDALKVTALAEVAERLGWTHERPDFTDLDARRDLGQLGDVRGRLQRLLEIARAATEKGPVVLAGSSLGSYIAAQVSLQVPTRALFLMVPPTKMGPLPALDAAAVPISIVHAWHDELIPAADVIAWAQARSARLLLVDDGHRLGAHVQAASRAFAELLQSL | not failed
3 | MSRIASHTQGLFADLREWIDLRVDLAILEMEERLDAFKNDLALGLTVAVFAFFAAFFSLTTVALGVGWLLGHPFWGFLAVSVALILIIVTLRVTKPALMPPSNLFESLRGERAASDEGPSSRPASAAVDEADGAEAQASAPDVKA | failed
4 | MSRILITGAAGMVGRALLEELDEHDVFATDLVPPKATGAVTWLPMDVTTDDPDRIVGEVRPQVVIHLASIVTPGVARAVAHRVDVGGTRAVLDACLAHGVRRLVVTSSGAAYGYHADNPMPLRESDPLRGNPEFAYADHKRQVEEILAEARQSAPQLEQVVLRVGTVLGAGTENQITALFRKPRLLAVRGSESPFVFIWTRDLARILARAAGEGPAGIYNVAGDGAMGVSDLARALGKPVLRLPALTLKAALALARPLGLSRYGPEQVRFLQYRPVLANDALKQVFGYVPELASAEVFDLWRREAGL | failed
5 | MSRILVLAVVALALLNPLFLVVHSLPTGVSAHDGPIYTNAVLGYANITSLQAYNSSFNVPYGASLQLNVVLEATSTNGNTYYFWLQNVAQFVTNESLMCFTDNVWNYTTATAEISNVTGNGGIGFTYNILFGHPTFYGYSTEPMPYRFPLALYLLINESLSSNGVIVNFIYVVLQNGSLVPPHPVTYDSVFIPVPDPQSAYIIVNDSLTPSAVVLNFTLFYQEALGNLMDTELVWGGYENGEFTTFTQMSSYLGLFYLSGNSFVPFSTVYTYGNDTAESTGDLYVSIASNGDAYVTVGTPDYGLLTDSFHPYIPGFTFVNVTSKVPFLVNGTYTNSFVGYVVHPVTITFYRNYTVNSSSYAVLDYPSQSLTITPSNTFKNVIITPQYTYYYKVIVNSSRPLLLNISGKETLTNGTLWLPQGTSVSLVNNTYYVSSGERFVVNNTYPNLPLTVENPTTITVTLEKQFKLTINSPIPLLLSINGKSRLFNGTTWVLQGSAVELVNNTYYVSSGERYVVSSISPSTPIEVSGPMNISVELVKEYKVEIVSSQPVMATIKGETEPVNGTAWLPQGSVIHLTANLPVYLKGYFVGTYNASPGEQVTINGPIYEKLVVQLNYTFLEELVIPIVTAVVIVVAITRRR | failed
6 | MSRQPLSREDTAILVPALNEALRIREVVTDALTYCSHVIVIDDGSDDGTAECIAGMPVTLIRHPQRMGKGAALRSGFAQAQRLGMRAVMTMDGDGQHKAADFPRLLAAANRHPGCVIIGARMRKRATQPTIRRIGNDFGDWGIAWGCGFRLIDSQSGQRLYPASVFTLPNVPGEGFVFEAQLLISAARQAGARVVAVPIETRYAGTSPGTFRKSHFRLVRDLWNITSHVVKQVWAYGHVWREYRRVRANPVIVDDPDGEFATVPAVTKSNHSSLEHHHHHH | failed
7 | MSRRTVSLTVLALVLALLILVAPDVLLVIFAGVLFGVFLSAGGGLVQRVTGLQRGAGIALFIVLVLLALTGAFLAFAPAMFEQADALARQLPPAFEDLRDRISAYSWGPTLLSRLAPSRLLSSDGGFASTAVSATFGALGNVVIILFIGLYTAVDPGLYRRGLRALLAPPLRPRGDEVLAIADGTLRGWLGGQIISMTVVGVLTWLGLWLIGIPLAFILGLIAALLTFIPNIGPVLSAVPALLLALPEGAEQVGLVLAVFLTVQTFESYLVTPLIQKERVALPPALIISAQLLMGVLFGLMGLLLATPLAALALALVREVYVHDYLEEGPAKAQGPDRAD | failed
8 | MSRSPRYTNFILIAVMLGALLPAAGCLEEHEVASAGLSSATMSVNLTYYTEQLPPYNYMENSMLQGLSVDLLEEITEKMGKKVTREEVHLVPWTEGYQAALNGNNTVLFSMARSPEREQFFKWAGPIYSDRYVLFAKRDRGITIKNPEDLKGYRIGVIADDIATRQLLDIGVNQSQIAPESNVSAIIAGLENGDIDLWACPEDAGRYFTEELTGSYYSYTVVYQLETQDLYYAFSKDVPDSVVQSFQQALDAVKREKDVEGISTYDRILGKYIPSIGLARLNYLTEEWAPFNYQEDGNVTGISVEILEAVFKNIGVNRSRADVRIVPLAEGFQIAQNNTSTVLFSIVRTPEREPFYKWAGPFTRANFVLYAPVSSNITISSPKDLNQYRIGAIRASIENDLLASQGVNESQIINGQTPEDLFRMLEEGQIDLWATGDLAGRHQMLRTAEDPNAYEIVYTLSENDFYYIFSKDVPDTLVSAFQQALDTVRDQRDEQGVSDYERIIYRNLGVGCAPQTFTDDTVMELVNTTVKAIEKNASDTFRRINAGEAPYRDSKDPGLYAFVYDTNLTIVAHADNIQLVGTNFRGKTDVTGKPFRDEILEGALKNGTGSVDYVYMHPVQTNLYYKTAYYRLTRGSDGNSYIVCSGNYKLCQNQSEAMPANNSTASPEELAAFVEKAFEYAHENGQEVALREFNNQAGQFVDGKFYIFAYDTNGTTLALPFQPEIIGTKRWNVTDTNGTLFIQDLVDTAQSGGGFVRYFYADPADNFTVKQKLSYVMMVNQSWIIGSGIYDPQKDSAIVRAGTDPQVRENLKSFVGEAIEYANTNGKDTAIEEFNDRNGAFVRGNLYIYAFDYNGTTLALPYQAQLIGTNLSELQDPYGVNYTKVEIFMAQQGGGFLFYHYYNPARNMTLEPKMSYVQKVDDTWWLGAGTYTEDLNRITKRD | failed
9 | MSRTNINFNNKRTELANKIWDIFIANGYENTTLAFIINKLGISKGALYHYFSSKEECADAAIENRVAFFSNEVLKESEEGLNSIERLKKILLAGIKITSVNEQVKEINSPSNKIFHQKLMVAIIKYFAPIYADIISQGNEEGVFKVKYPLETAEIILTLSHFYLDEDLFKWKKEDMSLKLTAFKETLIKILDADEDTFDFIK | not failed
10 | MSRTTASTCMGERRQSSLKRLAIFRPVQRLPARELLPLDGDRWLVAAQRREPERGPNGLGNGQRRPVQFRREVPGEHDVCIHIHRAVGFEDVIHDEPHPVGGLPFDDIRCGHIYALLGQSIGYVRVVSDADLDDGIDRRQSVDKRAGGVGHVVQFMRCGRICVPMHVDIVPVGEVSAQVKREASDGLRSVYDCEVSMHEPQSIPAGAYDGDRDQYRAEEFIDLARRVGSGGKNIAITPKDLFYRRRNYVFGLAYLGGSGSVISTYRLQTSSDGGFSNRSAGEIFSQRVRKEVVHEVGHTLGLEHCDNKRCVMNFSPTVRQVDVKEVSLCGSCQRNVL | failed
11 | MSRVHNRALSAAELQSFGDELDAIRARVLSQVGAADARYIRRIVAAVRWTGVAGRALLFLGAFVHSVLIPAWIAGVLLLALSKILENMELGHNVMHGQYDWMGDPQLNGNTYEWDIVATGDNWRKTHNFKHHTYTNVRGMDDDIGYGLLRIFPEQRWRPFYLLQPFIAVVFALLFEWGVAIQDLRLGRWFAGKMKAAELRASFLPVGRKMGRQMLKDYIVFPLLAGPFFLTVLLGNLAANVLRSIWTFVIIFCGHFTADAEVFPKESIRNESRGHWYLRQLRGSSNLTGGKLMNVLSGNLSHQIEHHFYPDLPANRYAQIAVEVKQVCARYGQHYNTGSLPRQFGQVMWRIVRHAFPSRPKPVRQGSGALQSA | failed
12 | MSSAKSARYNRFSGGPANLPASDSSGTRMETTFGPTFSTVTTITKAADGTSTYKQHRRTPSSSSTLAYSPRDEEDGMPPINTPRRSDSAISVRSLHSESSMSLRSTFSLPEEEEEPEPLVFAEQPSVKLCCQLCCSVFKDPVITTCGHTFCRRCALKSEKCPVDNAKLTVVVNNIAVAEQIGELFIHCRHGCRAAGTGKPGVFEVDPRGCPFTIKLSARKDHESSCDYRPVRCPNNPSCPPLLKMNLEAHLKECEHIKCPHSKYGCTFIGNQDTYETHLETCRFEGLKEFLQQTDDRFHEMHVALAQKDQEIAFLRSMLGKLSEKIDQLEKSLELKFDVLDENQSKLSEDLMEFRRDASMLNDELSHINARLNMGILGSYDPQQIFKCKGTFVGHQGPVWCLCVYSMGDLLFSGSSDKTIKVWDTCTTYKCQKTLEGHDGIVLALCIQGCKLYSGSADCTIIVWDIQNLQKVNTIRAHDNPVCTLVSSHNMLFSGSLKAIKVWDIVGTELKLKKELTGLNHWVRALVAAQSYLYSGSYQTIKIWDIRTLDCIHVLQTSGGSVYSIAVTNHHIVCGTYENLIHVWDIESKEQVRTLTGHVGTVYALAVISTPDQTKVFSASYDRSLRVWSMDNMICTQTLLRHQGSVTALAVSRGRLFSGAVDSTVKVWTC | failed
13 | MSSAQFDHVTVIKKSNVYFGGLCISHTVQFEDGTKKTLGVILPTEQPLTFETHVPERMEIISGECRVKIADSTESELFRAGQSFYVPGNSLFKIETDEVLDYVCHLEG | not failed
14 | MSSATASIKLSNGVEMPVIGLGTWQSSPAEVITAVKTAVKAGYRLIDTASVYQNEEAIGTAIKELLEEGVVKREELFITTKAWTHELAPGKLEGGLRESLKKLQLEYVDLYLAHMPAAFNDDMSEHIASPVEDVWRQFDAVYKAGLAKAVGVSNWNNDQISRALALGLTPVHNSQVELHLYFPQHDHVDFCKKHNISVTSYATLGSPGRVNFTLPTGQKLDWAPAPSDLQDQNVLALAEKTHKTPAQVLLRYALDRGCAILPKSIQENRIKENFEVFDFSLTEEDIAKLEESKNSQRLFLQDFMTGHPEDAFAAERK | not failed
15 | MSSDHRDQYYWRAKRDQFRSRAAYKLEFLIERYGIIKDGQAVLEIGSSPGGWTQVLVDHGCRVVAVDIQPMDEIPGVIFLKLNILREDAAERIREEMARSLVQRFDVVLSDAMAKTSGIRSSDHAASVMIGNAVMKIAMDTLRRGGVAVVKQFQGDMTGDFIKNWGHYFRDHRITKPPASRKESSEVYIIFYGFSGKETDNSVQG | failed
16 | MSSEVQKGPRALTVGRGDGRIWGMSSAERLARIYRRLDLVETPAVDLSHPVVAVDAGWVFDESLIKALAGREGAVLVDDAGRAVAVHAPADLAYAASEALAAGNDPAGLDPRFTRLTALELGSAYNSALRKREPPVLERLTPETVRAVEKRLFQGSYKGVTDFVTKYVWPAPARVVTRWCALAKMTPNQVTFIGFVMVLAATWLFWHGHFGWGLVCAWIMTFLDTVDGKLARVTLTSSKWGNVFDHGIDLVHPPFWWWAWFVGVYAVGQEIPYAALSLAIVVGGYVAQRVEEGIFLALFKLEMHAWRPFDSFFRLITARRNPNLILLTGCAMVGRPDLGFTLVAIWTAVCFVVHAIQILQGLMAPKGSIQSWLAK | failed
17 | MSSFRSAWAGAPAGIAVARTGQSVPLLNAAAALAVAMAVGGWLSGARHASAIDATQIESWRAMVAQAMEPQALRQLRQLARGGSTPARTALGEALLDSRDASLRHEGVRWLEAAAQPADGAPGDARAQLALGKALLLGTGGVARDYPRALHLLRQAADRGDAAAAYYLGLMYRSGYGTAANTALAAHWFDGAARHGIPAAMFMLANAYRDGDGVPRDEARALALYEQAAEHELPEAVQALAMAYQNGELGLARDDAAFRKQWLETAHALKHPALTP | failed

Reference: a protein production outcome set (Wang et al. 2014)
